The record followed here is patent US20180094275A1 (AGRESEARCH, published 2018).

Test [1] has as its target T1, Y2H NINJA-AD (NINJA fused to GAL4 activation domain) (Arabidopsis thaliana).
T1 construct: Prey fusion; also called pDEST22-NINJA
T1 chain: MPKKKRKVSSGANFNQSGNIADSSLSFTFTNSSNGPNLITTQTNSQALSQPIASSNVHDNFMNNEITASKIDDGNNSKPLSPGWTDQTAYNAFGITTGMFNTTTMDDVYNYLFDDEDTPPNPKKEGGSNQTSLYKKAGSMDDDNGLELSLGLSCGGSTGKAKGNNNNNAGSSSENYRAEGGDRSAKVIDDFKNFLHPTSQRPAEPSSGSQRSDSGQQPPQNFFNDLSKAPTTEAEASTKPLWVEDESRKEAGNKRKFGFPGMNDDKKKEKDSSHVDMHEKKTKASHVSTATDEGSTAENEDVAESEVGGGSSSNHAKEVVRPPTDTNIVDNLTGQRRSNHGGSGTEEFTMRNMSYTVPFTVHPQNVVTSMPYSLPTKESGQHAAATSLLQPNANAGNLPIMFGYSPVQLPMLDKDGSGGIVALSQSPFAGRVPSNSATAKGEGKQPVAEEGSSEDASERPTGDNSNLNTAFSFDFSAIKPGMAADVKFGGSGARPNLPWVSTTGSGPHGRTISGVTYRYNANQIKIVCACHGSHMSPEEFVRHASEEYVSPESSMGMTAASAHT
The test is described as follows: yeast two-hybrid.

Test [2] addresses T2, Y2H BZR1-AD (BZR1 fused to GAL4 activation domain) (Arabidopsis thaliana).
T2 construct: Prey fusion; also called pDEST22-BZR1
T2 chain: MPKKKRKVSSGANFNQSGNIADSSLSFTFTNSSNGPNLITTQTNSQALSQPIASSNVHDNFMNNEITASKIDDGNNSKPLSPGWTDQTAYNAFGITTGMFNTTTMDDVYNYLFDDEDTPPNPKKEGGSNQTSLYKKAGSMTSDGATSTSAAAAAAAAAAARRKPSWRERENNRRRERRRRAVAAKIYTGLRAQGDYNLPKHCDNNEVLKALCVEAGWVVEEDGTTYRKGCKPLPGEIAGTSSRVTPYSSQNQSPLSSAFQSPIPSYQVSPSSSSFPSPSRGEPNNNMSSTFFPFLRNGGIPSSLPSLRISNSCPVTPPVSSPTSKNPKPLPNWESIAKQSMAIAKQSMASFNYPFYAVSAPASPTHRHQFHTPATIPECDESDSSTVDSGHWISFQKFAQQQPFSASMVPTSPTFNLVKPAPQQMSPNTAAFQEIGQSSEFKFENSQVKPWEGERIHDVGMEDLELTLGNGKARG
The test is described as follows: yeast two-hybrid.

The target of test [3] is T2, Y2H BZR1-AD (BZR1 fused to GAL4 …). The test is described as follows: yeast two-hybrid (ProQuest, MaV203).
Test [4] addresses T3, Y2H RGA1-AD (DELLA protein RGA1 fused to GAL4 activation domain).
T3 construct: Prey fusion tested against PPD1-DBD as bait; also called DELLA (RGA1)
T3 chain: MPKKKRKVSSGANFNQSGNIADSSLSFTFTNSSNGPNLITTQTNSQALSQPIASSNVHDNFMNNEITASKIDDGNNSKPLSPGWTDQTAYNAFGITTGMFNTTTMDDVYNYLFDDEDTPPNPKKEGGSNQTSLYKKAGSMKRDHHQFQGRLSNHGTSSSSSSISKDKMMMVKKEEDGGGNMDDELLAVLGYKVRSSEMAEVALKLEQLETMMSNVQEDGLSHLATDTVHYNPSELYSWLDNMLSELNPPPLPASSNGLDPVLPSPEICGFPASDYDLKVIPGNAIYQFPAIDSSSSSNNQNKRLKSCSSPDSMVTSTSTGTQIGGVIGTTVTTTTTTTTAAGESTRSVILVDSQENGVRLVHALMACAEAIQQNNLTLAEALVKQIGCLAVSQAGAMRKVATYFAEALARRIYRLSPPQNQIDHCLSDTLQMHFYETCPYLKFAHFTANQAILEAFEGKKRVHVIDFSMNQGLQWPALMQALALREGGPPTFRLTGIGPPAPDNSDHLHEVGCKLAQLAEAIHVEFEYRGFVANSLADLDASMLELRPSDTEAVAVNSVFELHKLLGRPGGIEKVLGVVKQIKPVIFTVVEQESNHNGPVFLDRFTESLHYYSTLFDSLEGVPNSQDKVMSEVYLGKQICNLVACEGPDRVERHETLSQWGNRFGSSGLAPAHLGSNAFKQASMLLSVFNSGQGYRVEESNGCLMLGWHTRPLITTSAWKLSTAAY
The test is described as follows: yeast two-hybrid, PPD1-DBD as bait, selective medium with 15 mM 3AT.

The target of test [5] is T4, Y2H PPD1-AD (PPD1 fused to GAL4 activation domain) (Arabidopsis thaliana).
T4 construct: Prey fusion; also called pDEST22-PPD1
T4 chain: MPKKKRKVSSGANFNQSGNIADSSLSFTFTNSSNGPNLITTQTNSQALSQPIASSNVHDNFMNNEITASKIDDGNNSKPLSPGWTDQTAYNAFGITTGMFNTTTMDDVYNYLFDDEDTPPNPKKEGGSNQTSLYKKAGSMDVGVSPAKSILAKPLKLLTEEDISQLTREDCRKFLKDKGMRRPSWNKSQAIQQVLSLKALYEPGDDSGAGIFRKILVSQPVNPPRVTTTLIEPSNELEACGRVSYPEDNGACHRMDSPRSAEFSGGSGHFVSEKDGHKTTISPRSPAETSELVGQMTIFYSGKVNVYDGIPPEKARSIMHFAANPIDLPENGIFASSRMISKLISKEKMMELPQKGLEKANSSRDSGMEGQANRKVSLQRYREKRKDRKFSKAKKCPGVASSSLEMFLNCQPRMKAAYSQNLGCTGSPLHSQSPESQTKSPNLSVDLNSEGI
The test is described as follows: yeast two-hybrid.

B1: Y2H TPL-DBD (TOPLESS fused to GAL4 DNA binding domain) (other)
chain: MKLLSSIEEACNICRLKKLKCSKEKPKCAKCLKNNWECRYSPKTKRSPLTRAHLTEVESRLERLEQLFLLIFPRENLNMILKMDSLQDIKALLTGLFVQDNVNKDAVTDRLASVETDMPLTLRQHRISATSSSEESSNKGQRQLTVSSRSNQTSLYKKAGSMSSLSRELVFLILQFLDEEKFKETVHKLEQESGFFFNMKYFEDEVHNGNWDEVEKYLSGFTKVDDNRYSMKIFFEIRKQKYLEALDKHDRPKAVDILVKDLKVFSTFNEELFKEITQLLTLENFRENEQLSKYGDTKSARAIMLVELKKLIEANPLFRDKLQFPTLRNSRLRTLINQSLNWQHQLCKNPRPNPDIKTLFVDHSCGPPNGARAPSPVNNPLLGGIPKAGGFPPLGAHGPFQPTASPVPTPLAGWMSSPSSVPHPAVSAGAIALGGPSIPAALKHPRTPPTNASLDYPSADSEHVSKRTRPMGISDEVNLGVNMLPMSFSGQAHGHSPAFKAPDDLPKTVARTLSQGSSPMSMDFHPIKQTLLLVGTNVGDIGLWEVGSRERLVQKTFKVWDLSKCSMPLQAALVKEPVVSVNRVIWSPDGSLFGVAYSRHIVQLYSYHGGEDMRQHLEIDAHVGGVNDISFSTPNKQLCVITCGDDKTIKVWDAATGVKRHTFEGHEAPVYSVCPHYKENIQFIFSTALDGKIKAWLYDNMGSRVDYDAPGRWCTTMAYSADGTRLFSCGTSKDGESFIVEWNESEGAVKRTYQGFHKRSLGVVQFDTTKNRYLAAGDDFSIKFWDMDAVQLLTAIDGDGGLQASPRIRFNKEGSLLAVSGNENVIKIMANSDGLRLLHTFENISSESSKPAINSIAAAAAAAATSAGHADRSANVVSIQGMNGDSRNMVDVKPVITEESNDKSKIWKLTEVSEPSQCRSLRLPENLRVAKISRLIFTNSGNAILALASNAIHLLWKWQRNERNATGKATASLPPQQWQPASGILMTNDVAETNPEEAVPCFALSKNDSYVMSASGGKISLFNMMTFKTMATFMPPPPAATFLAFHPQDNNIIAIGMDDSTIQIYNVRVDEVKSKLKGHSKRITGLAFSNVLNVLVSSGADAQLCVWNTDGWEKQRSKVLPLPQGRPNSAPSDTRVQFHQDQAHFLVVHETQLAIYETTKLECMKQWAVRESLAPITHATFSCDSQLVYASFMDATVCVFSSANLRLRCRVNPSAYLPASLSNSNVHPLVIAAHPQEPNMFAVGLSDGGVHIFEPLESEGKWGVAPPAENGSASGAPTAPSVGASASDQPQR
notes: Bait fusion; also called pDEST32-TPL
Turning to B1, the binding result in test [1] and in test [2] was “binds” each time.

B2: Y2H PPD1-DBD (PPD1 fused to GAL4 DNA binding domain) (other)
chain: MKLLSSIEEACNICRLKKLKCSKEKPKCAKCLKNNWECRYSPKTKRSPLTRAHLTEVESRLERLEQLFLLIFPRENLNMILKMDSLQDIKALLTGLFVQDNVNKDAVTDRLASVETDMPLTLRQHRISATSSSEESSNKGQRQLTVSSRSNQTSLYKKAGSMDVGVSPAKSILAKPLKLLTEEDISQLTREDCRKFLKDKGMRRPSWNKSQAIQQVLSLKALYEPGDDSGAGIFRKILVSQPVNPPRVTTTLIEPSNELEACGRVSYPEDNGACHRMDSPRSAEFSGGSGHFVSEKDGHKTTISPRSPAETSELVGQMTIFYSGKVNVYDGIPPEKARSIMHFAANPIDLPENGIFASSRMISKLISKEKMMELPQKGLEKANSSRDSGMEGQANRKVSLQRYREKRKDRKFSKAKKCPGVASSSLEMFLNCQPRMKAAYSQNLGCTGSPLHSQSPESQTKSPNLSVDLNSEGI
notes: Bait fusion expressed in yeast MaV203; also called pDEST32-PPD1; PPD1 bait
For B2, the binding result is reported as “no binding” in test [3], “binds” in test [4], “binds” in test [5] and “binds” in test [1].
